Laboratory results reported in doi:10.1101/2023.07.08.548231.
“And” between values parts separate entries of the source, which are not always exact repeats. Equal entries are not always repeated.

Target: H2AK119Ub nucleosome (UniProt P04908)
Assay: cryo-EM structure

GST-SSX1 (human SSX1 residues 111-188 with an N-terminal GST tag), sequence (Q16384 111-188): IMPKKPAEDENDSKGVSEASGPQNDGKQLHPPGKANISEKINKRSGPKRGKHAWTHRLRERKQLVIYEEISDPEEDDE

stoichiometry N (SSX1 per nucleosome): 2 and 1
Substance: GST-SSX1 (human SSX1 residues 111-188 with an N-terminal GST tag) (from UniProt Q16384 111-188) (domain or fragment)
